Key:
Assay in all cases: BLI
Conditions in all cases: both partners purified
[1] = molecular target: NiV G trimer: NiV G head domain residues 172-602 coupled to an N-terminal foldon domain (Nipah virus, Malaysia (AAK50545.1), UniProt Q9IH62)
[2] = molecular target: hexameric NiV G: two G ectodomain headgroups linked by a foldon trimerization domain via short glycine linkers (Nipah virus, Malaysia (AAK50545.1), UniProt Q9IH62)
[3] = molecular target: T1, NiV G ferritin 24-mer nanoparticle: NiV G ectodomain residues 172-602 linked to the C-terminus of ferritin … (Nipah virus, Malaysia (AAK50545.1), UniProt Q9IH62)
T1 construct: copies: 24

Measured: binding result

B1: m102.4 monoclonal antibody (HeV G-specific antibody), human IgG1/kappa (antibody, V domains shown)
VH: EVQVIQSGADVKKPGSSVKVSCKSSGGTFSKYAINWVRQAPGQGLEWMGGIIPILGIANYAQKFQGRVTITTDESTSTAYMELSSLRSEDTAVYYCARGWGREQLAPHPSQYYYYYYGMDVWGQGTTVTVSS
VL: EIVMTQSPGTLSLAPGERATLSCWASQSVRNNYLAWYQQKPGQAPRLVIYNGSTRATGIPDRFSGSGSGTDFTLTISRLDPEDFAVYYCQQYGNSRRVTFGGGTKVEIK
binds: all assays above

Reference: paper PMC7300195 (Frontiers in Immunology, 2020)
